These results are taken from US20100098681A1 (Janssen / Centocor, published 2010).

The chains are these.
B1: P177 phage (S16, pIX) (peptide)
chain: GGGDACTMVFLWCSLGGGSGGSGG
notes: pIX phagemid display; also called PP177; not shown: M13 phage coat protein pIX (MSVL...)
B2: P178 phage (S17, pIX) (peptide)
chain: GGGRWCYFWWITICELGGGSGGSGG
notes: pIX phagemid display; also called PP178; not shown: M13 phage coat protein pIX (MSVL...)
B3: P175 phage (S15, pIX) (peptide)
chain: GGGLPDDSLPELICKVRGGGGSGGSGG
notes: pIX phagemid display; also called PP175; not shown: M13 phage coat protein pIX (MSVL...)
B4: SEQ ID NO: 21 (S15 hit, pIX phage) (peptide)
chain: GGGLPDLICAVDSGTSGAGGGSGGSGG
notes: pIX phagemid display; not shown: M13 phage coat protein pIX (MSVL...)
B5: SEQ ID NO: 10 (S15 hit, pIX phage) (peptide)
chain: GGGYRLFVDESIFFCTRLGGGSGGSGG
notes: as for B4
B6: SEQ ID NO: 16 (S15 hit, pIX phage) (peptide)
chain: GGGSTITSLPTLQCWPILGGGSGGSGG
notes: as for B4
B7: SEQ ID NO: 19 (S15 hit, pIX phage) (peptide)
chain: GGGGADTLPDLLCWESSLGGGSGGSGG
notes: as for B4
B8: SEQ ID NO: 15 (S15 hit, pIX phage) (peptide)
chain: GGGNWFSLPTLLCFPLNPGGGSGGSGG
notes: as for B4
B9: SEQ ID NO: 20 (S15 hit, pIX phage) (peptide)
chain: GGGTVFTLPELVCVVAGTGGGSGGSGG
notes: as for B4
B10: SEQ ID NO: 18 (S15 hit, pIX phage) (peptide)
chain: GGGPIFSSLPVLYCTSQLGGGSGGSGG
notes: as for B4
B11: SEQ ID NO: 11 (S15 hit, pIX phage) (peptide)
chain: GGGELGLPTLLCWPTDTLGGGSGGSGG
notes: as for B4
B12: SEQ ID NO: 17 (S15 hit, pIX phage) (peptide)
chain: GGGPIDDESLPVLYCVTSGGGSGGSGG
notes: as for B4
B13: SEQ ID NO: 14 (S15 hit, pIX phage) (peptide)
chain: GGGHVSLQSLPELICVVSGGGSGGSGG
notes: as for B4
B14: SEQ ID NO: 12 (S15 hit, pIX phage) (peptide)
chain: GGGVSGILPILVCHPAATGGGSGGSGG
notes: as for B4
B15: P190 phage, pIX display (190-phagemid) (peptide)
chain: GGGDPCTWEVWGRECLQGGGSGGSGG
notes: pIX phagemid display, on average one peptide per phage particle; also called PHPEP190; pIX-190; not shown: M13 phage coat protein pIX (MSVL...)
B16: SEQ ID NO: 43 (S20 hit, pIX phage) (peptide)
chain: GGGPTCDSATRRVLTICADGGGSGGSGG
notes: as for B4
B17: SEQ ID NO: 47 (S20 hit, pIX phage) (peptide)
chain: GGGSVCVGTAFPGWMVCGPGGGSGGSGG
notes: as for B4
B18: SEQ ID NO: 46 (S20 hit, pIX phage) (peptide)
chain: GGGYICTPSDIDSWYICYLGGGSGGSGG
notes: as for B4
B19: SEQ ID NO: 49 (S20 hit, pIX phage) (peptide)
chain: GGGLLCATTSFRDWFVCFTGGGSGGSGG
notes: as for B4
B20: SEQ ID NO: 44 (S20 hit, pIX phage) (peptide)
chain: GGGWMCFLEGYGASLMCQCGGGSGGSGG
notes: as for B4
B21: SEQ ID NO: 45 (S20 hit, pIX phage) (peptide)
chain: GGGDSCCSFLTDGTVVCSLGGGSGGSGG
notes: as for B4
B22: P190-MMB construct 4314 (Fc fusion)
chain: GGDPCTWEVWGRECLQGGGSCPPCPAPEAAGGPSVFLFPPKPKDTLMISRTPEVTCVVVDVSQEDPEVQFNWYVDGVEVHNAKTKPREEQFNSTYRVVSVLTVLHQDWLNGKEYKCKVSNKGLPSSIEKTISKAKGQPREPQVYTLPPSQEEMTKNQVSLTCLVKGFYPSDIAVEWESNGQPENNYKTTPPVLDSDGSFFLYSRLTVDKSRWQEGNVFSCSVMHEALHNHYTQKSLSLSLGK
notes: GG, P190, Flex, human IgG4 hinge-CH2-CH3 with two Leu to Ala changes
B23: P179 phage (S19, pIX) (peptide)
chain: GGGGPCVLIRDYYLLCLEGGGSGGSGG
notes: pIX phagemid display; also called PP179; not shown: M13 phage coat protein pIX (MSVL...)
B24: P180 phage (S19, pIX) (peptide)
chain: GGGMICYLVDSGNIICYKGGGSGGSGG
notes: pIX phagemid display; also called PP180; not shown: M13 phage coat protein pIX (MSVL...)
B25: SEQ ID NO: 40 (S19 hit, pIX phage) (peptide)
chain: GGGAFCRLDFNQWLTCLVGGGSGGSGG
notes: as for B4
B26: SEQ ID NO: 38 (S19 hit, pIX phage) (peptide)
chain: GGGYDCMIRADGSLICWCGGGSGGSGG
notes: as for B4
B27: SEQ ID NO: 41 (S19 hit, pIX phage) (peptide)
chain: GGGCDCREAVSASLVCRYGGGSGGSGG
notes: as for B4
B28: SEQ ID NO: 30 (S18 hit, pIX phage) (peptide)
chain: GGGAYCSFVAGDLVCQVGGGSGGSGG
notes: as for B4
B29: SEQ ID NO: 32 (S18 hit, pIX phage) (peptide)
chain: GGGSDCVLFGSKLFCSAGGGSGGSGG
notes: as for B4
B30: SEQ ID NO: 27 (S18 hit, pIX phage) (peptide)
chain: GGGDSCIQFANLLYCAIGGGSGGSGG
notes: as for B4
B31: SEQ ID NO: 24 (S18 hit, pIX phage) (peptide)
chain: GGGAKCIAFGNSVYCLNGGGSGGSGG
notes: as for B4
B32: P173 phage (S18, pIX) (peptide)
chain: GGGTDCVIFGLETYCLRGGGSGGSGG
notes: pIX phagemid display; also called PP173; not shown: M13 phage coat protein pIX (MSVL...)
B33: SEQ ID NO: 28 (S18 hit, pIX phage) (peptide)
chain: GGGTDCIRFGVLWYCLVGGGSGGSGG
notes: as for B4
B34: SEQ ID NO: 25 (S18 hit, pIX phage) (peptide)
chain: GGGRDCIIFDKTVYCVIGGGSGGSGG
notes: as for B4
B35: SEQ ID NO: 29 (S18 hit, pIX phage) (peptide)
chain: GGGRACITFGKVVYCEVGGGSGGSGG
notes: as for B4
B36: SEQ ID NO: 35 (S18 hit, pIX phage) (peptide)
chain: GGGRGCVVFGDNIYCIVGGGSGGSGG
notes: as for B4
B37: SEQ ID NO: 33 (S18 hit, pIX phage) (peptide)
chain: GGGTDCVRFGETIYCIVGGGSGGSGG
notes: as for B4
B38: SEQ ID NO: 26 (S18 hit, pIX phage) (peptide)
chain: GGGKHCILFEKTVYCAKGGGSGGSGG
notes: as for B4
B39: SEQ ID NO: 34 (S18 hit, pIX phage) (peptide)
chain: GGGYDCVSFGAVAYCPQGGGSGGSGG
notes: as for B4
B40: SEQ ID NO: 23 (S18 hit, pIX phage) (peptide)
chain: GGGAGCIAFVDVVYCARGGGSGGSGG
notes: as for B4

In one experiment the target is T1, sEGFR-MMB (dimeric sEGFR mimetibody) (human).
T1 construct: Disulfide linked homodimer, expressed in 293E cells; also called sEGFR-Fc
T1 sequence (chain, as listed by the source limits assumed): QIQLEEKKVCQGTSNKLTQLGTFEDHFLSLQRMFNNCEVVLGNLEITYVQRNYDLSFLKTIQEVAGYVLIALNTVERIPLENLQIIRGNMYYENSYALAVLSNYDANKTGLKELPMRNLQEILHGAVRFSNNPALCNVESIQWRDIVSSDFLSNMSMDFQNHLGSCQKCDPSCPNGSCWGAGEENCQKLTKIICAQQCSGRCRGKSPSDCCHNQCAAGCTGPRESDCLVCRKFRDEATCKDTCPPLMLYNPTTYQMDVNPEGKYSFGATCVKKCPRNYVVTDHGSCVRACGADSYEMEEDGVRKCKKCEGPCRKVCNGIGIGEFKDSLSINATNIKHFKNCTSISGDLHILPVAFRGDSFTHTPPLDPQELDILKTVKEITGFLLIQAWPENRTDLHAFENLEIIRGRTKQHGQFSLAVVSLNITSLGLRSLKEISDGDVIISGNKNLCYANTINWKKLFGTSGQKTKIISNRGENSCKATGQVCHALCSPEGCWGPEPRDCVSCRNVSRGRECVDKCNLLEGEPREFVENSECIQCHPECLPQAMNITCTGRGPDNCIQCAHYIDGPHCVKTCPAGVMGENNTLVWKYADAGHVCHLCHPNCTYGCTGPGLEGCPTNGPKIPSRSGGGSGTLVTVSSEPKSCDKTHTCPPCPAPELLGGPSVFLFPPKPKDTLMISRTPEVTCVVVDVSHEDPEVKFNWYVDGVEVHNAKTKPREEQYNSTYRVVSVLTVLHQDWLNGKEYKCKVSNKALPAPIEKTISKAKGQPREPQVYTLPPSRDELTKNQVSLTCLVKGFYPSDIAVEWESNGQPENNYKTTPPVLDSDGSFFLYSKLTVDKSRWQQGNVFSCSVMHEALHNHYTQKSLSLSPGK
Description: phage ELISA on coated sEGFR-MMB, chemiluminescence (background typically <200 units). For orientation: In an ELISA, binding on a coated surface is turned into a signal by an enzyme label.
Description: The protein solution was removed and wells were rinsed twice with Tris-Buffered Saline containing 0.05% Tween-20 (TBS-T) using a plate washer (Embla). The wells were blocked with Starting Block in TBS for 1 hr at room temperature and rinsed twice with TBS-T. An equal volume of phage supernatant and Starting Block in TBS were incubated in the wells for 1 hr at room temperature, and the wells were rinsed five times with TBS-T. Anti-M13/horseradish peroxidase conjugate (Amersham), diluted 1:5000 in Starting Block in TBS, was added into the wells and incubated for 1 hour at room temperature, and then the wells were rinsed five times with TBS-T. Finally, chemiluminescent peroxidase substrate (Roche) was added to the wells, and chemiluminescence was measured on a Tecan plate reader.
Molecule B1 yielded an ELISA signal of 8660 units.

For the molecule B2, the ELISA signal turned out to be 7910 units.

The next experiment addresses T2, biotinylated sEGFR-His6 (human, UniProt P00533 25-645, biotinylated (reagent and sites not stated)).
T2 construct: Captured on streptavidin in the ELISA; also called b-sEGFR-His; b-sEGFR-His6
Description: phage ELISA, luminescence; biotinylated receptor captured on streptavidin [panel C].
Consider B3, for which the binding result is reported as “no binding”.

In a further experiment the target is T1, sEGFR-MMB (dimeric sEGFR mimetibody). Description: phage ELISA on coated sEGFR-MMB, chemiluminescence (background typically <200 units). This is another data set of the same source.
Turning to B4, the ELISA signal is 1160 units.

B5 gave an ELISA signal of 3080 units.

In the case of B6, the ELISA signal was found to be 13300 units.

On to B7, for which the ELISA signal came to 5720 units.

B8 showed an ELISA signal of 3670 units.

As to B9, the ELISA signal worked out at 1520 units.

B3 gave an ELISA signal of 6790 units.

B10 showed an ELISA signal of 1420 units.

As to B11, the ELISA signal was 9380 units.

For B12, the ELISA signal amounted to 1780 units.

B13 came in with an ELISA signal of 1360 units.

As for B14, the ELISA signal worked out at 1110 units.

The target in another experiment is T3, Human extracellular EGFR-His6 (sEGFR-His6) (human, UniProt P00533 25-645).
T3 construct: Monomer, expressed in HEK293E cells, glycosylated; also called sEGFR-6×His; monomeric sEGFR
Description: phage ELISA, coated sEGFR-His6.
Description: (§1) The plates were held overnight at room temperature, washed twice with TBST (0.5M Tris Base, 9% NaCl, 0.05% tween, pH 7.6), and loaded with 200 μL per well of Starting Block (Pierce). […] The plates were held at room temperature for 1.5 hours for blocking. Plates were then washed twice with TBST and phage were added. The phage solutions were crude phage supernatant from overnight cultures diluted four-fold with Starting Block. After a one-hour incubation, the plates were washed thrice with TBST and 100 μL of a 1:5000 dilution of phage binding antibody conjugate (a-M13-HRP) was added to the wells. […] After a one-hour incubation the plates were washed five times with TBST, 100 μL of POD (BM Chemiluminescence ELISA substrate; Roche Applied Science) was added, and chemiluminescene recorded.
With B15, the binding result was “no binding”.

The target in the next experiment is T1, sEGFR-MMB (dimeric sEGFR mimetibody). Description: phage ELISA on coated sEGFR-MMB, chemiluminescence (background typically <200 units). This is another data set of the same source.
In turn, B16 registered an ELISA signal of 5420 units.

B17 displayed an ELISA signal of 4770 units.

On to B18, for which the ELISA signal was found to be 6620 units.

B19: the ELISA signal stood at 4510 units.

Consider B20, for which the ELISA signal amounted to 4800 units.

Turning to B21, the ELISA signal stood at 9540 units.

Another experiment shares this target. Description: ELISA, luminescence; sEGFR-MMB immobilized, MMB titrated.
B22: the binding result was “binds”.

The target of a further experiment is T4, Control-MMB (CNTO 360) (Homo sapiens (Human), UniProt P0DOX5 111-449 = IgG part).
T4 construct: Described as human IgG1 heavy chain dimer absent the variable and most of the CH1 domains; also called blank mimetibody scaffold protein
Description: phage ELISA, protein coated at 5 ug per mL.
As for B15, the binding result is “no binding”.

In another experiment the target is Streptavidin alone. Description: phage ELISA, luminescence; streptavidin-coated wells without receptor [panel C].
Description: Confirmatory Phage ELISA. Phage were amplified in XL-1 Blue host cells and purified by precipitation with 6% polyethylene glycol-8000/0.5 M sodium chloride. The precipitated phage were resuspended in phosphate-buffered saline in a volume that was 1/100th the original culture volume. […] The binding reaction was incubated for 1 hr at room temperature, and then bound phage were detected with anti-M13/HRP as above. For ELISAs with biotinylated receptors, streptavidin at 5 μg/ml was coated in the wells overnight at 4° C. […] The wells were rinsed with TBS-T and then blocked with Starting Block. Bound phage were washed and detected with anti-M13/HRP as described above.
B3: the binding result is “no binding”.

As for B23, the binding result is listed as “no binding”.

The next experiment concerns the target T1, sEGFR-MMB (dimeric sEGFR mimetibody). Description: phage ELISA, protein coated at 5 ug per mL, chemiluminescence.
Description: as §1
Take B15: the “Relative Signal” value was determined as 3940.

In a further experiment the target is T3, Human extracellular EGFR-His6 …. The description is as above.
Description: as §1
As for B15, the “Relative Signal” value is 6.

The next experiment concerns the target T4, Control-MMB (CNTO 360). Description: phage ELISA, luminescence; Control-MMB coated on the wells [panel A].
For B3, the binding result is “no binding”.

As to B23, the binding result is on record as “no binding”.

The next experiment deals with T1, sEGFR-MMB (dimeric sEGFR mimetibody). Description: phage ELISA on coated sEGFR-MMB, chemiluminescence (background typically <200 units). The source holds these as a separate data set.
B24 showed an ELISA signal of 8810 units.

Regarding B25, the ELISA signal came out at 2580 units.

B23 showed an ELISA signal of 14000 units.

For the molecule B26, the ELISA signal was 1290 units.

On to B27, for which the ELISA signal turned out to be 3350 units.

The next experiment shares this target. Described as above. This is another data set of the same source.
In the case of B28, the ELISA signal worked out at 19800 units.

B29 showed an ELISA signal of 35300 units.

The molecule B30 registered an ELISA signal of 53200 units.

For B31, the ELISA signal is 31500 units.

B32 displayed an ELISA signal of 37900 units.

As for B33, the ELISA signal was 4750 units.

Turning to B34, the ELISA signal was found to be 17100 units.

B35: the ELISA signal was determined as 30700 units.

With B36, the ELISA signal is 22000 units.

Turning to B37, the ELISA signal amounted to 13300 units.

For B38, the ELISA signal is 9110 units.

Molecule B39 returned an ELISA signal of 3200 units.

B40 showed an ELISA signal of 6380 units.
